Experimental data from patent US20120230976.

Target: mixture of gliadins (SIGMA Cat. No. G3375)

B1: neprilysin from Rothia mucilaginosa ATCC 25296 (RefSeq ZP_05367591) (protein)
chain: MTTNSGITKEWVDETVKPGDDFFRHVNGKWLATHEIPADRPKDGGLYTLRDNAEKHVRELVEKIAKEQPESRIGALYNSFMDVEKIEADGLEPLLKEIAPILNSATPSHLAVTLALLSRAGLPQLFAWYTSNDPKDPKNYTFFLYQSGLGLPDESYYREEKHEAACAAYVEHIARMFQLTGLAEGFGLTPEQAAQLVFTHESELARLHWNVVENRDAEATYNPYQATELDEKFPGFPFSQWLLALGADPETLGQVIVAQPSFFEGAAKLFTSIPLMSWKLWAVWTVLRSRAPFMYDELVQESFNFYGKTLSGTQQIRERWKRGVGAVEKALGEEIGQEYVAVHFPPSHKEKMLVLVGNLLEAYRESIESLDWMTEATRQKALEKLSKFVTKIGYPDKWRDFSALELVPGDLFENLRRTGAFDADWLIARKGQPVDKAEWLMTPQTVNAYYMPPANEIVFPAAILQPPYFNPDADDAANYGNIGMIIGHEIGHGFDDQGSRYDGDGKLESWWTEEDYAKFKERTAALVEQYNAYVPVGLDPKFHVNGELTLGENIGDLAGMSIALKAYRLALKKQGIESLADAPVIDGMTGIQRFFFSNARGWCTKSRPQHAEVMISVDPHSPDEFRVNGVVRNIDEFYEAFGVSEGDALYLAPEERVRIW
gliadin zymography (proteolytic activity): The clear bands observed in the zymogram gel confirmed proteolytic activity towards gliadin
